Measured values from patent publication CN116143909A.

Legend:
[1] = biological target: HIV-1 P24抗原(购自菲鹏) (HIV-1) (UniProt P04591); assay: indirect ELISA, P24 coated at 1 ug/ml, antibody at 125 ng/ml, goat anti-human IgG-HRP
[2] = biological target: HIV-1 P24抗原(购自菲鹏) (HIV-1) (UniProt P04591); assay: indirect ELISA, P24 coated at 1 ug/ml, antibody at 250 ng/ml, goat anti-human IgG-HRP
[3] = biological target: HIV-1 P24抗原(购自菲鹏) (HIV-1) (UniProt P04591); assay: indirect ELISA, P24 coated at 1 ug/ml, antibody at 62.5 ng/ml, goat anti-human IgG-HRP
[4] = biological target: HIV-1 P24抗原(购自菲鹏) (HIV-1) (UniProt P04591); assay: indirect ELISA, P24 coated at 1 ug/ml, antibody at 31.25 ng/ml, goat anti-human IgG-HRP
[5] = biological target: HIV-1 P24抗原(购自菲鹏) (HIV-1) (UniProt P04591); assay: indirect ELISA, P24 coated at 1 ug/ml, antibody at 15.625 ng/ml, goat anti-human IgG-HRP
[6] = biological target: HIV-1 P24抗原(购自菲鹏) (HIV-1) (UniProt P04591); assay: indirect ELISA, P24 coated at 3 ug/ml, supernatant of transiently transfected CHO cells diluted 1000-fold, goat anti-human IgG-HRP

| Molecule | OD450 (ref 630 nm) [1] [OD] | OD450 (ref 630 nm) [2] [OD] | OD450 (ref 630 nm) [3] [OD] | OD450 (ref 630 nm) [4] [OD] | OD450 (ref 630 nm) [5] [OD] | OD450 (ref 630 nm) [6] [OD] |
| --- | --- | --- | --- | --- | --- | --- |
| 对照抗体 (antibody) | 1.28 | 1.57 | 0.756 | 0.537 | 0.337 | – |
| 6F13RMb1 (antibody, human IgG1, kappa, V domains shown) VH: QVQLVQSGAEVKKPGSSVKVSCKASGGTFSSYAISWVRQAPGQGLEWMGGSIPIFGTTHYAQKFQGRVAIIVDESTSTSYMELSSLRSDDTAAYYCARAATAIFGVPRNNFYAMEVWGQGTTVTVSS VL: DIVMTQSPLSLSVTPGEPASISCRSSQSILHSNGYNYLDWYLQRPGQSPKLLIYIGSTRASGVPDRFSGSGSGTDFTLKISRVEAEDVGVYYCMQAVQTFFGPGTKVDLKR | 1.42 | 1.52 | 1.03 | 0.673 | 0.455 | > 1 |
